Experimental data as given in patent US20260001961A1 (ALLIGATOR BIOSCIENCE, published 2026).

B1: AM_4115-4133 (bispecific antibody)
heavy 1: not shown
light: DIQMTQSPSSLSASVGDRVTITCRASQSISSYLNWYQEKPGKAPKLLIYAASSLQSGVPSRFSGSGSGTDFTLTISSLQPEDFATYYCQQYGRNPPTFGQGTKLEIKRTVAAPSVFIFPPSDEQLKSGTASVVCYLNNFYPREAKVQWKVDNALQSGNSQESVTEQDSKDSTYSLWSTLTLSKADYEKHKVYACEVTHQGLSSPVTKSFNRGEC
heavy 2: EVQLLEQSGAELVRPGTSVKISCKASGYAFTNYWLGWVKERPGHGLEWIGDIFPGSGNIHYNEKFKGKATLTADKSSSTAYMQLSSLTFEDSAVYFCARLRNWDEPMDYWGQGTTVTVSSASTKGPSVFPLAPSSKSTSGGTAALGCLVKDYFPEPVTVSWNSGALTSGVHTFPAVLQSSGLYSLTSVVEVPSSSLGTQTYICNVNHKPSNTKVDKKVEPKSC
notes: AC_05293 backbone; also called double mutant I126S + S183T; copies: 2 + 2 + 2
B2: AM_4120-4131 (bispecific antibody)
heavy 1: not shown
light: DIQMTQSPSSLSASVGDRVTITCRASQSISSYLNWYQEKPGKAPKLLIYAASSLQSGVPSRFSGSGSGTDFTLTISSLQPEDFATYYCQQYGRNPPTFGQGTKLEIKRTVAAPSVFIFPPSDEQLKSGTASVVCYLNNFYPREAKVQWKVDNALQSGNSQESVTEQDSKDSTYSLWSTLTLSKADYEKHKVYACEVTHQGLSSPVTKSFNRGEC
heavy 2: EVQLLEQSGAELVRPGTSVKISCKASGYAFTNYWLGWVKERPGHGLEWIGDIFPGSGNIHYNEKFKGKATLTADKSSSTAYMQLSSLTFEDSAVYFCARLRNWDEPMDYWGQGTTVTVSSASTKGPSVFPLAPSSKSTSGGTAALGCLVKDYFPEPVTVSWNSGALTSGVHTFPAVLQSSGLWSLSSVVEVPSSSLGTQTYICNVNHKPSNTKVDKKVEPKSC
notes: AC_05293 backbone; also called double mutant A111V + Y180W; copies: 2 + 2 + 2
B3: AM_4115-4134 (bispecific antibody)
heavy 1: not shown
light: DIQMTQSPSSLSASVGDRVTITCRASQSISSYLNWYQEKPGKAPKLLIYAASSLQSGVPSRFSGSGSGTDFTLTISSLQPEDFATYYCQQYGRNPPTFGQGTKLEIKRTVAAPSVFIFPPSDEQLKSGTASVVCYLNNFYPREAKVQWKVDNALQSGNSQESVTEQDSKDSTYSLWSTLTLSKADYEKHKVYACEVTHQGLSSPVTKSFNRGEC
heavy 2: EVQLLEQSGAELVRPGTSVKISCKASGYAFTNYWLGWVKERPGHGLEWIGDIFPGSGNIHYNEKFKGKATLTADKSSSTAYMQLSSLTFEDSAVYFCARLRNWDEPMDYWGQGTTVTVSSASTKGPSVFPLAPSSKSTSGGTAALGCLVKDYFPEPVTVSWNSGALTSGVHTFPAVLQSSGLYSLSSVVEGPSSSLGTQTYICNVNHKPSNTKVDKKVEPKSC
notes: AC_05293 backbone; also called double mutant I126S + V188G; copies: 2 + 2 + 2
B4: AM_4117-4134 (bispecific antibody)
heavy 1: not shown
light: DIQMTQSPSSLSASVGDRVTITCRASQSISSYLNWYQEKPGKAPKLLIYAASSLQSGVPSRFSGSGSGTDFTLTISSLQPEDFATYYCQQYGRNPPTFGQGTKLEIKRTVAAPSVFIFPPSDEQLKSGTASVVCYLNNFYPREAKVQWKVDNALQSGNSQESVTEQDSKDSTYSLWSTLTLSKADYEKHKVYACEVTHQGLSSPVTKSFNRGEC
heavy 2: EVQLLEQSGAELVRPGTSVKISCKASGYAFTNYWLGWVKERPGHGLEWIGDIFPGSGNIHYNEKFKGKATLTADKSSSTAYMQLSSLTFEDSAVYFCARLRNWDEPMDYWGQGTTVTVSSASTKGPSVFPLAPSSKSTSGGTAALGCLVKDYFPEPVTVSWNSGALTSGVHTFPAVLQSSGLYSLSSVVEGPSSSLGTQTYICNVNHKPSNTKVDKKVEPKSC
notes: AC_05293 backbone; also called double mutant T109P + V188G; copies: 2 + 2 + 2
B5: AM_4117-4126 (bispecific antibody)
heavy 1: not shown
light: DIQMTQSPSSLSASVGDRVTITCRASQSISSYLNWYQEKPGKAPKLLIYAASSLQSGVPSRFSGSGSGTDFTLTISSLQPEDFATYYCQQYGRNPPTFGQGTKLEIKRTVAAPSVFIFPPSDEQLKSGTASVVCYLNNFYPREAKVQWKVDNALQSGNSQESVTEQDSKDSTYSLWSTLTLSKADYEKHKVYACEVTHQGLSSPVTKSFNRGEC
heavy 2: EVQLLEQSGAELVRPGTSVKISCKASGYAFTNYWLGWVKERPGHGLEWIGDIFPGSGNIHYNEKFKGKATLTADKSSSTAYMQLSSLTFEDSAVYFCARLRNWDEPMDYWGQGTTVTVSSASTKGPSVFPLAPSSKSTSGGTAALGCLVKDYFPEPVTVSWNSGALTSGVHTFPAVLQSSGLISLSSVVEVPSSSLGTQTYICNVNHKPSNTKVDKKVEPKSC
notes: AC_05293 backbone; also called double mutant T109P + Y180I; copies: 2 + 2 + 2
B6: AM_4117-4131 (bispecific antibody)
heavy 1: not shown
light: DIQMTQSPSSLSASVGDRVTITCRASQSISSYLNWYQEKPGKAPKLLIYAASSLQSGVPSRFSGSGSGTDFTLTISSLQPEDFATYYCQQYGRNPPTFGQGTKLEIKRTVAAPSVFIFPPSDEQLKSGTASVVCYLNNFYPREAKVQWKVDNALQSGNSQESVTEQDSKDSTYSLWSTLTLSKADYEKHKVYACEVTHQGLSSPVTKSFNRGEC
heavy 2: EVQLLEQSGAELVRPGTSVKISCKASGYAFTNYWLGWVKERPGHGLEWIGDIFPGSGNIHYNEKFKGKATLTADKSSSTAYMQLSSLTFEDSAVYFCARLRNWDEPMDYWGQGTTVTVSSASTKGPSVFPLAPSSKSTSGGTAALGCLVKDYFPEPVTVSWNSGALTSGVHTFPAVLQSSGLWSLSSVVEVPSSSLGTQTYICNVNHKPSNTKVDKKVEPKSC
notes: AC_05293 backbone; also called double mutant T109P + Y180W; copies: 2 + 2 + 2
B7: AM_4120-4126 (bispecific antibody)
heavy 1: not shown
light: DIQMTQSPSSLSASVGDRVTITCRASQSISSYLNWYQEKPGKAPKLLIYAASSLQSGVPSRFSGSGSGTDFTLTISSLQPEDFATYYCQQYGRNPPTFGQGTKLEIKRTVAAPSVFIFPPSDEQLKSGTASVVCYLNNFYPREAKVQWKVDNALQSGNSQESVTEQDSKDSTYSLWSTLTLSKADYEKHKVYACEVTHQGLSSPVTKSFNRGEC
heavy 2: EVQLLEQSGAELVRPGTSVKISCKASGYAFTNYWLGWVKERPGHGLEWIGDIFPGSGNIHYNEKFKGKATLTADKSSSTAYMQLSSLTFEDSAVYFCARLRNWDEPMDYWGQGTTVTVSSASTKGPSVFPLAPSSKSTSGGTAALGCLVKDYFPEPVTVSWNSGALTSGVHTFPAVLQSSGLISLSSVVEVPSSSLGTQTYICNVNHKPSNTKVDKKVEPKSC
notes: AC_05293 backbone; also called double mutant A111V + Y180I; copies: 2 + 2 + 2
B8: AM_4117-4133 (bispecific antibody)
heavy 1: not shown
light: DIQMTQSPSSLSASVGDRVTITCRASQSISSYLNWYQEKPGKAPKLLIYAASSLQSGVPSRFSGSGSGTDFTLTISSLQPEDFATYYCQQYGRNPPTFGQGTKLEIKRTVAAPSVFIFPPSDEQLKSGTASVVCYLNNFYPREAKVQWKVDNALQSGNSQESVTEQDSKDSTYSLWSTLTLSKADYEKHKVYACEVTHQGLSSPVTKSFNRGEC
heavy 2: EVQLLEQSGAELVRPGTSVKISCKASGYAFTNYWLGWVKERPGHGLEWIGDIFPGSGNIHYNEKFKGKATLTADKSSSTAYMQLSSLTFEDSAVYFCARLRNWDEPMDYWGQGTTVTVSSASTKGPSVFPLAPSSKSTSGGTAALGCLVKDYFPEPVTVSWNSGALTSGVHTFPAVLQSSGLYSLTSVVEVPSSSLGTQTYICNVNHKPSNTKVDKKVEPKSC
notes: AC_05293 backbone; also called double mutant T109P + S183T; copies: 2 + 2 + 2

Key:
[1] = molecular target: T1, CD40 (UniProt P25942 21-193); assay: Octet BLI; biotinylated CD40 on streptavidin sensor;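 note: octet RED96 biolayer interferometry, 300 s association then 300 s dissociation in kinetic buffer, buffer-blank referenced, fitted with a 1:1 Langmuir binding model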
T1 construct: also called biotinylated CD40; CD40 antigen
T1 sequence (P25942 21-193 limits assumed): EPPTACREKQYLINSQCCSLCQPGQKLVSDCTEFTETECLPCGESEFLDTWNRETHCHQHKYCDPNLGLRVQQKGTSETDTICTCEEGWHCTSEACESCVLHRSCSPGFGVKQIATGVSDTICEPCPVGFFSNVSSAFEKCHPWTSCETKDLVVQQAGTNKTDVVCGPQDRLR

[2] = molecular target: T2, EpCAM (UniProt P16422 24-265); assay: Octet BLI; biotinylated EpCAM on streptavidin sensor;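 note: octet RED96 kinetics: 300 s association, then 300 s dissociation in 1x Kinetic buffer, buffer-blank referenced, Savitzky-Golay smoothed, fitted to a 1:1 Langmuir binding model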
T2 construct: also called biotinylated EpCAM
T2 sequence (looked up): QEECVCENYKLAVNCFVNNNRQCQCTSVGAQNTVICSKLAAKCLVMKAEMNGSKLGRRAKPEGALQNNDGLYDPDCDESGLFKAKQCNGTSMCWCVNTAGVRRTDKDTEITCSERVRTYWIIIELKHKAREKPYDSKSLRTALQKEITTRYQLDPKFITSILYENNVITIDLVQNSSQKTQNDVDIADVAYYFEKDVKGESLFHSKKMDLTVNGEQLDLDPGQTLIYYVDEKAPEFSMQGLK
Protocol: Kinetic measurements were performed using the Octet RED96 platform (ForteBIo). […] Association was followed for 300 seconds followed by dissociation in 1x Kinetic buffer for 300 seconds. Sensor tips were regenerated using 10 mM glycine, pH 1.7. Data generated were referenced by subtracting a parallel buffer blank, the baseline was aligned with the γ-axis, inter-step correlation by alignment against dissociation was performed and the data were smoothed by a Savitzky-Golay filter in the data analysis software (v.9.0.0.14). The processed data were fitted using a 1:1 Langmuir binding model with X2 as a measurement of fitting accuracy.
Binding affinities of all the variants were determined using Octet (Pall ForteBio).

Binder | Kd [1] [nM] | koff [1] [s⁻¹] | kon [1] [M⁻¹ s⁻¹] | Kd [2] [nM] | koff [2] [s⁻¹] | kon [2] [M⁻¹ s⁻¹]
B1 | 1 | 0.0011 | 1.1e+06 | 7 | 0.0013 | 180000
B2 | 1.1 | 0.00097 | 920000 | 5.3 | 0.0015 | 280000
B3 | 1.1 | 0.001 | 930000 | 6.9 | 0.0013 | 190000
B4 | 0.97 | 0.00072 | 740000 | 5.2 | 0.0012 | 230000
B5 | 1.2 | 0.00048 | 400000 | 4.6 | 0.001 | 220000
B6 | 1 | 0.00066 | 630000 | 4.5 | 0.0012 | 260000
B7 | 0.86 | 0.001 | 1.2e+06 | 5.6 | 0.0013 | 230000
B8 | 0.93 | 0.0007 | 750000 | 4.6 | 0.0012 | 260000
